{
  "source": "patent US20170051021A1",
  "about": "“PEPTIDE AGONISTS OF TOLL-LIKE RECEPTOR 5 LIGAND AND METHOD OF USE” (priority 2014, published 2017)",
  "key": {"NF-kB": {"system": "NF-kB", "assay": "NF-kB reporter system luciferase assay in transiently transfected CACO-2 cells", "type": "cell-based", "details": "CACO-2 cells transfected with mock vector delta NFkB-Luc", "procedure": "All transfections were performed in triplicate in 24-well plates. Approximately 2×10^5 CACO-2 cells per well were seeded 24 h before transfection. Following the manufacturer's instructions, plasmids were transfected into cells using FUGENE transfection reagent (Promega, Medison, Wis.). Briefly, 0.8 μg of reporter plasmids carrying different NF-kB responsive elements (IL8-Luc, IGkB-Luc) plus 0.05 μg of pCMV-LacZ vector were diluted with Opti-MEM and then mixed with diluted liposomes. After 20 min of incubation at room temperature, the mixtures were added to each well. […] Each experiment was conducted a minimum of three times."}, "Wistar rats": {"system": "Wistar rats", "assay": "In vivo protective role against lethal irradiation, survival of Wistar rats", "set-up": "species or system rat", "details": "0.1 mg/kg s.c. one hour before single total dose of 9.6 Gy, FIG. 16", "procedure": "One hour later, rats were irradiated for about 30 min with a single total dose of 9.6 Gy and survival was monitored daily (FIG. 16)."}},
  "data": [
    {"molecule": "VINCRO1 (protein, left off: small tags and cut ends) LTIQVGANDGETIDIDLKQINSQTLSSSGSSGSSGSSIDAALAQVDALRSDLGAVQNRFNSA", "values": [
      {"measurement": "luciferase activity with mock vector (specificity control)", "setting": "NF-kB", "value": "no luciferase activity"},
      {"measurement": "protection from lethal irradiation (survival)", "setting": "Wistar rats", "value": "protect Wistar rats from lethal irradiation"}
    ]}
  ]
}
